Source: patent US20220323580A1 (Janssen / Centocor, published 2022)
Numbering of substitutions follows the chain as printed. In names and notes the source's numbering stands. Each block holds one binder with its values, some of them ahead of it.

Experiments:
recombinant human TNFα [1] = target: T1, recombinant human TNFα (human, UniProt P01375 77-233, 125I-labeled in the receptor blocking assay); experiment: competition radioligand assay: mAb in hybridoma supernatant preincubated with 5 ng/ml 125I-TNFα, then cpm bound to plate-coated p55-sf2 counted; blocked partner p55-sf2
T1 construct: It is not tied to the protein used in the assays, so it is not used here; also called huTNFα; tumor necrosis factor alpha
Description: Each sample was tested in duplicate. The results shown are representative of two independent experiments.
(§1) 50:1 of p55-sf2 at 0.5:g/ml in PBS was added to Optiplates to coat the wells during a one-hour incubation at 37° C. Serial dilutions of the eight TNV cell supernatants were prepared in 96-well round-bottom plates using PBS/0.1% BSA as diluent. […] The mixture was preincubated for one hour at RT. […] After 2 hrs at RT, Optiplates were washed three times with PBS-Tween. […] of Microscint-20 was added and the cpm bound determined using the TopCount […].

recombinant human TNFα [2] = target: T1, recombinant human TNFα; experiment: competition: 125I-TNFα binding to plate-coated p55-sf2, hybridoma supernatant
Description: as §1
The concentrations of the TNV mAbs in their respective cell supernatants were first determined by standard ELISA analysis for human IgG.

recombinant human TNFα [3] = target: T1, recombinant human TNFα; experiment: cell-based or functional assay

fold better at blocking TNF binding (vs TNV118 and TNV14) (recombinant human TNFα [2]): ~4 fold
IC50 (read off the curve) (recombinant human TNFα [1]): ~4 ng/mL
neutralizing TNFα bioactivity (recombinant human TNFα [3]): 4 fold (vs TNV14)
B2: TNV148 (antibody, V domains shown)
VH: QVQLVESGGGVVQPGRSLRLSCAASGFIFSSYAMHWVRQAPGNGLEWVAFMSYDGSNKKYADSVKGRFTISRDNPKNTLYLQMNSLRAEDTAVYYCARDRGIAAGGNYYYYGMDVWGQGTTVTVSS
VL: EIVLTQSPATLSLSPGERATLSCRASQSVYSYLAWYQQKPGQAPRLLIYDASNRATGIPARFSGSGSGTDFTLTISSLEPEDFAVYYCQQRSNWPPFTFGPGTKVDIK
notes: also called GenTNV148.26.12; C420A

IC50 (read off the curve) (recombinant human TNFα [1]): ~4 ng/mL
neutralizing TNFα bioactivity (recombinant human TNFα [3]): 4 fold (vs TNV14)
B4: TNV196 (antibody, human IgG1, V domains shown)
VH: B2 VH with I28T, N43K, M51I, Y60S, I70V, P75S, Y80F, Y94F, A103G
VL: B2 VL
notes: Totally human IgG1 kappa mAb from the GenTNV fusion, tested as hybridoma supernatant; also called GenTNV196.9.1; C421A

Continued, binder first:

B1: TNV15 (antibody, human IgG1, V domains shown)
VH: B2 VH with I28T, N43K, M51I, S52L, P75S, T78A, I102V, A103S
VL: B2 VL with Y30S
notes: Totally human IgG1 kappa mAb from the GenTNV fusion, tested as hybridoma supernatant; also called GenTNV15.28.11; C415A
IC50 (read off the curve) (recombinant human TNFα [1]): ~4 ng/mL

B3: TNV86 (antibody, V domains shown)
VH: B2 VH
VL: B2 VL
notes: also called GenTNV86.14.34; C417A
fold better at blocking TNF binding (vs TNV118 and TNV14) (recombinant human TNFα [2]): ~4 fold
